The target in this assay is T1, ∆NTD-ClpC1 (ClpC1 truncation mutant lacking N-terminal residues M1-Y145) (Mycobacterium tuberculosis H37Rv, UniProt P9WPC9 146-848).
T1 construct: ClpC1, M. tuberculosis H37Rv, Rv3596c, lacking N-terminal residues M1-Y145 (begins at residue 146); also called ∆NTD-ClpC1 truncation; not shown: His6-SUMO, N-terminal, cleaved
T1 sequence: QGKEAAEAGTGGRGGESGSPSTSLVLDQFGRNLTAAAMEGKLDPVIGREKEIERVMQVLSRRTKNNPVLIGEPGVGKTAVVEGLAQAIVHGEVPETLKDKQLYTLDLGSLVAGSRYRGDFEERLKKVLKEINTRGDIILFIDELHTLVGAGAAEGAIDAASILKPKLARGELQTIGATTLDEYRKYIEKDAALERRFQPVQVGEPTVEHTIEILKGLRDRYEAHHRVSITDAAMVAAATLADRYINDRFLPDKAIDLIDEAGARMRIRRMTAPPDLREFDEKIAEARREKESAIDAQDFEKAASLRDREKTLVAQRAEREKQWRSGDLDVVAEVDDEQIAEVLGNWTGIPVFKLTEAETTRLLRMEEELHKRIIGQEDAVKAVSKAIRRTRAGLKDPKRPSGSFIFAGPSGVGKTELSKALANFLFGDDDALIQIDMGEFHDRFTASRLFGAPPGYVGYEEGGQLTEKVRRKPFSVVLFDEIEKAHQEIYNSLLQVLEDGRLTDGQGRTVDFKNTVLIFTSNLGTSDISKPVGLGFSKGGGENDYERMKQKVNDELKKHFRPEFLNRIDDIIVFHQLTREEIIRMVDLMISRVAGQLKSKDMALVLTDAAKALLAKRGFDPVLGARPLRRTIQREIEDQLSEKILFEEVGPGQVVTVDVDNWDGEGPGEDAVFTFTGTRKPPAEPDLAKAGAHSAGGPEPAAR
The assay can be described thus: pull-down. Particulars: both partners purified.

B1: His6-SUMO-ClpS (Mycobacterium tuberculosis ClpS adaptor protein, His6-SUMO fusion) (natural protein)
chain: MAVVSAPAKPGTTWQRESAPVDVTDRAWVTIVWDDPVNLMSYVTYVFQKLFGYSEPHATKLMLQVHNEGKAVVSAGSRESMEVDVSKLHAAGLWATMQQDR
notes: also called His6-ClpS; His6-tagged ClpS; not shown: His6, N-terminal, kept; SUMO, N-terminal, kept
Take B1: the binding result is recorded as “binds”.

These data come from PMC6274998, “Mycobacterium tuberculosis ClpC1 N-Terminal Domain Is Dispensable for Adaptor Protein-Dependent Allosteric Regulation” (International Journal of Molecular Sciences, 2018).
